Results taken from patent EP4692367A1.

Key:
[1] = molecular target: LgBiT-p62 (Homo sapiens (Human)) (UniProt Q13501); test: NanoBiT split-luciferase complementation in HeLa cells co-transfected with pLgBiT-p62 and pSmBiT-DDX5; 10 uM FBnG for 24 h; luminescence 10 min after start of measurement
[2] = molecular target: LgBiT-p62 (Homo sapiens (Human)) (UniProt Q13501); test: NanoBiT split-luciferase complementation in HeLa cells co-transfected with pLgBiT-p62 and pSmBiT-DDX5; 10 uM AUTAC2-2G for 12 h; luminescence 10 min after start of measurement
[3] = molecular target: LgBiT-p62 (Homo sapiens (Human)) (UniProt Q13501); test: NanoBiT split-luciferase complementation in HeLa cells co-transfected with pLgBiT-p62 and pSmBiT-DDX5; 10 uM AUTAC4-2G for 12 h; luminescence 10 min after start of measurement
[4] = molecular target: LgBiT-p62 (Homo sapiens (Human)) (UniProt Q13501); test: NanoBiT split-luciferase complementation in HeLa cells co-transfected with pLgBiT-p62 and pSmBiT-DDX5; 10 uM 8-nitro-cGMP for 24 h; luminescence 10 min after start of measurement
[5] = molecular target: LgBiT-p62 (Homo sapiens (Human)) (UniProt Q13501); test: NanoBiT split-luciferase complementation in HeLa cells co-transfected with pLgBiT-p62 and pSmBiT-DDX5; each of compounds 5 to 33 at 10 uM for 24 h; luminescence 10 min after start of measurement

Sequence of SmBiT-DDX5 (P17844 whole entry): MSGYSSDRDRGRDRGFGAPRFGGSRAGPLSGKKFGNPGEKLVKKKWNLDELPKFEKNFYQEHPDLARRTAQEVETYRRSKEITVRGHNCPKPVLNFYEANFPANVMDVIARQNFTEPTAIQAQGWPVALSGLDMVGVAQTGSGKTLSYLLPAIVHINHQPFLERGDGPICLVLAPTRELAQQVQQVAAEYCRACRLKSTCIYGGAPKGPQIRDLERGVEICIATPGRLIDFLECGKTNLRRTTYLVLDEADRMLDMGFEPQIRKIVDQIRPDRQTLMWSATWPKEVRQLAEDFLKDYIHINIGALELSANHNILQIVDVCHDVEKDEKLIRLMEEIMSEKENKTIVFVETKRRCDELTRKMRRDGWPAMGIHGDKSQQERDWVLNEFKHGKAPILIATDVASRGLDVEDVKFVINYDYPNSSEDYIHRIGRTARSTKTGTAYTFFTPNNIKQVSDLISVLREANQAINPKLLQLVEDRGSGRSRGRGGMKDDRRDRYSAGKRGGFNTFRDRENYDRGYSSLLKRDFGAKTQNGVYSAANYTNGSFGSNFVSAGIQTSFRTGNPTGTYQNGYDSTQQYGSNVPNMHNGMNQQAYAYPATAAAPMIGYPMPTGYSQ

- emission intensity relative to cells treated with DMSO (times (fold over DMSO-treated cells)) [1]: > 1000
- emission intensity relative to cells treated with DMSO (times (fold over DMSO-treated cells)) [2]: > 1000
- emission intensity relative to cells treated with DMSO (times (fold over DMSO-treated cells)) [3]: > 1000
- emission intensity relative to cells treated with DMSO (times (fold over DMSO-treated cells)) [4]: > 1000
- emission intensity relative to cells treated with DMSO (times (fold over DMSO-treated cells)) [5]: > 1000
Substance: SmBiT-DDX5 (from UniProt P17844 1-614) (enzyme)
